Laboratory results taken from the supplement of paper PMC9112550, “Optimization of the antimicrobial peptide Bac7 by deep mutational scanning” (BMC Biology, 2022).

test system: Escherichia coli TOP10; experiment: shrunken log2 fold change of peptide-encoding DNA abundance (4.5 h post-induction vs induction); higher = less antimicrobial activity (less host growth inhibition); conditions: time post-induction: 4.5 h; library: site-saturation at positions 5, 18, 19, 20
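Further: peptides expressed intracellularly from a pBAD plasmid library in pooled LB shake-flask culture, induced with 0.3% L-arabinose, DNA abundance read by NGS, three biological replicates, DESeq2 with apeglm shrinkage.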

| Sequence | shrunken log2 fold change |
| --- | --- |
| RRIRKRPPRLPRPRPRPLECPRP | -0.00691 |
| RRIRKRPPRLPRPRPRPQIKPRP | 0.0963 |
| RRIRGRPPRLPRPRPRPNCHPRP | 0.415 |
| RRIRARPPRLPRPRPRPCIKPRP | 0.126 |
| RRIRCRPPRLPRPRPRPRFVPRP | 0.15 |
| RRIRQRPPRLPRPRPRPTRTPRP | 1.65 |
| RRIRQRPPRLPRPRPRPTTWPRP | -0.0695 |
| RRIRRRPPRLPRPRPRPAHSPRP | 0.384 |
| RRIRTRPPRLPRPRPRPTMGPRP | 0.0301 |
| RRIRVRPPRLPRPRPRPWSAPRP | -0.135 |
| RRIRWRPPRLPRPRPRPCYMPRP | -0.282 |
| RRIRVRPPRLPRPRPRPSSPPRP | -0.269 |
| RRIRRRPPRLPRPRPRPWDQPRP | 0.0792 |
| RRIRIRPPRLPRPRPRPCTKPRP | -0.151 |
| RRIRLRPPRLPRPRPRPNRRPRP | 0.0365 |
| RRIRFRPPRLPRPRPRPAANPRP | 0.22 |
| RRIRYRPPRLPRPRPRPMGVPRP | -0.762 |
| RRIRNRPPRLPRPRPRPMQIPRP | 0.0592 |
| RRIRSRPPRLPRPRPRPYEVPRP | 0.07 |
| RRIRFRPPRLPRPRPRPCFRPRP | -0.45 |
| RRIRFRPPRLPRPRPRPSYVPRP | -0.501 |
| RRIRVRPPRLPRPRPRPAAGPRP | 0.154 |
| RRIRLRPPRLPRPRPRPERLPRP | 0.466 |
| RRIRHRPPRLPRPRPRPAIGPRP | -0.0264 |
| RRIRRRPPRLPRPRPRPCVPPRP | -0.149 |

| Sequence | shrunken log2 fold change |
| --- | --- |
| RRIRHRPPRLPRPRPRPNVYPRP | -0.149 |
| RRIRWRPPRLPRPRPRPDKCPRP | -0.134 |
| RRIRSRPPRLPRPRPRPNSNPRP | -0.857 |
| RRIRERPPRLPRPRPRPPFMPRP | -0.185 |
| RRIRNRPPRLPRPRPRPKTKPRP | -0.0202 |
| RRIRDRPPRLPRPRPRPINLPRP | -0.129 |
| RRIRGRPPRLPRPRPRPAQAPRP | 0.505 |
| RRIRWRPPRLPRPRPRPLQLPRP | 0.0501 |
| RRIRQRPPRLPRPRPRPNDIPRP | -0.348 |
| RRIRDRPPRLPRPRPRPEHWPRP | 0.598 |
| RRIRWRPPRLPRPRPRPMIFPRP | -0.302 |
| RRIRERPPRLPRPRPRPKVSPRP | -0.205 |
| RRIRMRPPRLPRPRPRPGYQPRP | -0.0727 |
| RRIRGRPPRLPRPRPRPPIDPRP | 0.888 |
| RRIRSRPPRLPRPRPRPEEDPRP | -0.00277 |
| RRIRFRPPRLPRPRPRPFIDPRP | -0.389 |
| RRIRSRPPRLPRPRPRPMNPPRP | -0.0648 |
| RRIRQRPPRLPRPRPRPFDQPRP | -0.0498 |
| RRIRKRPPRLPRPRPRPVKRPRP | 0.0121 |
| RRIRSRPPRLPRPRPRPCPAPRP | -0.271 |
| RRIRNRPPRLPRPRPRPMTSPRP | -0.0113 |
| RRIRARPPRLPRPRPRPDVHPRP | 0.196 |
| RRIRRRPPRLPRPRPRPYFIPRP | -0.432 |
| RRIRHRPPRLPRPRPRPICSPRP | 0.0153 |
| RRIRVRPPRLPRPRPRPIFEPRP | 0.149 |

| Sequence | shrunken log2 fold change |
| --- | --- |
| RRIRWRPPRLPRPRPRPENTPRP | 0.167 |
| RRIRMRPPRLPRPRPRPMCIPRP | -0.296 |
| RRIRARPPRLPRPRPRPVTNPRP | 0.275 |
| RRIRMRPPRLPRPRPRPHCSPRP | 0.183 |
| RRIRDRPPRLPRPRPRPWLFPRP | 0.0977 |
| RRIRGRPPRLPRPRPRPGHVPRP | 0.204 |
| RRIRDRPPRLPRPRPRPFHQPRP | -0.0388 |
| RRIRLRPPRLPRPRPRPDQWPRP | -0.158 |
| RRIRKRPPRLPRPRPRPKSCPRP | 0.00967 |
| RRIRTRPPRLPRPRPRPVRGPRP | 0.784 |
| RRIRTRPPRLPRPRPRPRLFPRP | 0.207 |
| RRIRQRPPRLPRPRPRPSRNPRP | -0.0593 |
| RRIRMRPPRLPRPRPRPHTKPRP | 0.137 |
| RRIRARPPRLPRPRPRPCWTPRP | 0.01 |
| RRIRDRPPRLPRPRPRPQDAPRP | -0.103 |
| RRIRCRPPRLPRPRPRPLCEPRP | -0.0345 |
| RRIRLRPPRLPRPRPRPVVKPRP | -0.166 |
| RRIRERPPRLPRPRPRPDSFPRP | 0.0952 |
| RRIRSRPPRLPRPRPRPLWCPRP | 0.148 |
| RRIRTRPPRLPRPRPRPVSVPRP | -0.0287 |
| RRIRCRPPRLPRPRPRPSTQPRP | -0.495 |
| RRIRKRPPRLPRPRPRPLTEPRP | 0.397 |
| RRIRQRPPRLPRPRPRPPGNPRP | 0.246 |
| RRIRMRPPRLPRPRPRPQWRPRP | 1.5 |
| RRIRMRPPRLPRPRPRPNEEPRP | -0.0651 |
